Results taken from patent publication US5580958, “Polypeptides encoding transcriptional activators and uses thereof” (La Jolla Cancer Research Foundation).

Target: PU.1 beta-galactosidase fusion (lambda 25.1, Ly25.1) (Mus musculus, UniProt P17433 P17433:1-272)
Test: Southwestern blot with multimerized 33-mer; methylation interference protects three G in GAGGAA; lower affinity than PU-1
Conditions: tags: beta-galactosidase fusion, partially purified on anti-beta-gal Sepharose; label: 32P
Experimental: Production of beta-Galactosidase Fusion Protein and Western and Southwestern Analyses Lysogens were prepared from the lambda 25.1 and lambda 24.1 clones as described (Sturm et al., 1988) and the fusion proteins partially purified using anti-beta-galactosidase antibody bound to Sepharose (5 Prime - 3 Prime, Inc., Paoli, Pa.), as described by the manufacturer. Western and Southwestern analyses were carried out as described (Staudt et al., 1988).
Bacterial extracts prepared from lambda-gt11 and lambda 25.1 lysogens were fractionated on a 7.5% SDS-polyacrylamide gel, transferred to nitrocellulose and probed with labeled multimerized 33-mer. Only the lane with the lambda 25.1 extract contained a protein able to bind the probe. […] The positive filter was subsequently treated with rabbit antiserum to beta-galactosidase and mouse anti-rabbit immunoglobulin horseradish peroxidase conjugate. […] The appearance of several bands of lower molecular size are probably the result of degradation of the 150 kDa species. […] Some breakdown of the beta-galactosidase occurred in this sample resulting in a band at about 69 kDa.

B1: MHC class II I-A beta 33-mer (tetramer probe) (dsDNA)
DNA 1: GATCCGTCCCAAGTGAGGAACCAATCAGCATTG
DNA 2: CAATGCTGATTGGTTCCTCACTTGGGACGGATC
B1: binds.
